“Also recorded” adds a separate entry of the source.
Legend:
[1] = test system: BAD Ser155 phosphorylation in HeLa cells; assay: BAD phosphorylation in HeLa cells (western blot band-shift / anti-phospho-Ser155 antibody); assay type: cell-based, human
Procedure: A mammalian expression vector encoding mutant HA-BAD S155A, derived from the shorter murine BAD of SEQ ID NO:3, was constructed. HA-BAD S155A has an amino acid sequence wherein the serine at a position corresponding to Ser155 is substituted with alanine. A western blot was performed on WCL prepared from cells expressing the shorter murine BAD (SEQ ID NO:3), HA-BAD S112A, HA-BAD S136A, or HA-BAD S155A, and probed with anti-HA antibody.
A western blot analysis, probed with anti-HA antibody, was performed on lysates produced from the Forskolin treated and untreated (control) cells to determine whether Forskolin could induce the phosphorylation BAD or mutant BAD.
HeLa cells transiently expressing HA-BAD, HA-BAD S155A, HA-BAD S112A/S136A, or HA-BAD S112A/S136A/S155A were treated with Forskolin or a buffer control.
The HA-BAD S112A/S136A double mutant was transiently expressed in HeLa cells, and transfected cell cultures were treated with each of the GPCR ligands, individually and as a group. A western blot analysis, probed with anti-HA antibody, was performed on lysates produced from the treated and untreated (negative control) cells. […] Forskolin (FK) and no treatment (−) were positive and negative controls, respectively (FIG. 6(a), […], respectively).
Non-transfected HeLa cells were treated with Forskolin or L-epinephrine, followed by western blot analysis of cell lysates using anti-BAD antibodies.
Transformants were treated with L-epinephrine, then lysed and subjected to anti-HA western blot analysis.
To further test whether phosphorylation of Ser155 is dependent on the PI 3-kinase/Akt pathway, HeLa cells were transfected with the mutant HA-BAD S155A and pretreated with Wortmannin, an inhibitor of PI 3-kinase. These cells were then stimulated with epidermal growth factor (EGF), lysed and analyzed by western blot analysis.
For immunoprecipitation of all HA-BAD species, 1 μg of the anti-HA antibody was added to the cell lysates, and incubated at 4° C. for one hour. Protein G agarose (Pierce) was then added (50 μl/fraction of 50% slurry) and followed by a one hour incubation at 4° C. Beads were washed with RIPA buffer, boiled in loading buffer (2% SDS, 10% glycerol, 5% β-ME, 60 mM Tris, pH 6.8, 0.002% Bromophenol Blue) and loaded onto polyacrylamide gels. After electrophoresis, proteins were transferred to nitrocellulose membranes, and blots blocked in western wash buffer (40 mM Tris, pH 8.0, 150 mM NaCl, 0.2% NP-40) with 5% BSA for one hour at room temperature. Blots were incubated with primary antibody diluted in western wash buffer with 3% BSA at room temperature for 1–2 hours, washed with western wash buffer and incubated with secondary HRP-coupled antibody diluted in western wash buffer with 1.5% BSA, and washed extensively. Polypeptides were detected with the ECL chemiluminescence according to the manufacturers instructions (Amersham).

HeLa cells = assay: Beta-gal ELISA apoptosis assay in transfected HeLa cells; assay type: cell-based, human; settings: HeLa cells, 24 hours post-transfection
Procedure: Because BAD Ser155 phosphorylation, like Ser136 phosphorylation, prevents BAD from binding to Bcl-XL (FIG. 1), it was possible that by analogy, Ser155 dephosphorylation promotes cell death. To test this idea, HeLa cells were co-transfected with BAD or various BAD serine mutants and a β-gal reporter plasmid. Twenty-four hours post-transfection, cell viability was analyzed by β-gal ELISA.
To test this idea, HeLa cells were again co-transfected with BAD or various BAD serine mutants and a β-gal reporter plasmid. Forskolin was then added to half of the cultures while the other half was left untreated. Beta-gal ELISAs were performed 24 hours post transfection. […] Thus, phosphorylation of Ser155 rescues cells from BAD-induced apoptosis, while substitution of Ser155 with a nonphosphorylatable residue results in increased cell death and the failure of cells to be protected from induced PKA activity.
Beta-gal ELISA assays were performed using the β-gal ELISA system from Boehringer Mannheim, according to manufacture's instructions. Cells were transfected with BAD (or BAD mutant) and β-gal in a ratio of 5:1. The transfected cells were trypsinized and distributed into 96-well tissue culture plates. Twenty-four hours after transfection, cell extracts were obtained by lysing the cells in lysis buffer. Cell extracts (200 μl) were then added to anti-β-gal-coated microtiter plates (MTP). The MTPs were foil-covered and incubated for one hour at 37° C. Solutions were then decanted and the MTPs were washed, followed by the addition of 200 μl of anti-β-gal-DIG working solution, and incubation for an additional hour as described above. Solutions were again decanted, the MTPs washed and 200 μl of DIG-POD working solution were added. The MTPs were incubated for another hour at 37° C., the solution decanted, and the wells washed. 200 μl of substrate with enhancer were added to each well and incubated at room temperature until color development. The β-gal activity was measured by the absorbance of the sample at […]. Data were based on triplicate wells with standard deviations calculated.

B1: BAD S155A: mutant of shorter murine BAD, serine corresponding to Ser155 substituted with alanine; HA- or GST-tagged (protein)
chain: MFQIPEFEPSEQEDASATDRGLGPSLTEDQPGPYLAPGLLGSNIHQQGRAATNSHHGGAGAMETRSRHSSYPAGTEEDEGMEEELSPFRGRSRSAPPNLWAAQRYGRELRRMADEFEGSFKGLPRPKSAGTATQMRQSAGWTRIIQSWWDRNLGKGGSTPSQ
modifications: left off: small tags and cut ends
notes: mutant of shorter murine BAD, serine corresponding to Ser155 substituted with alanine; HA- or GST-tagged
For B1, the “band-shift (phosphorylation) of expressed BAD construct in response to L-epinephrine” value ([1]; HeLa cells) was “significantly reduced”, the “reactivity with anti-phospho-Ser155 specific BAD antibody” value ([1]; HeLa cells treated with Forskolin) was “failure of the anti-phospho-Ser155 specific BAD antibody to react” and the “growth factor (EGF)- and serum (FCS)-induced phosphorylation of expressed BAD mutant” value ([1]; HeLa cells, anti-HA western blot) was “dramatically reduced”. The “phosphorylation of expressed BAD mutant” value ([1]; HeLa cells, anti-HA western blot, compared to single mutation of Ser112 or Ser136) was “dramatically reduced the phosphorylation of the murine BAD in HeLa cells”, the “band-shift (phosphorylation) of expressed BAD construct in response to L-epinephrine” value ([1]; HeLa cells, listed as HA-BAD S155A) was “limited response” and the “effect of expressed BAD mutant on cellular survival / cell death” value (HeLa cells) was “greatest effect on cellular survival, with a significant increase in cell death compared to the control; also recorded: enhanced apoptotic activity compared with the wild-type mammalian BAD”.
